Source: the nanobody polyreactivity screen of Harvey et al. (2022)

Experiment: yeast display, Sf9 membrane polyspecificity reagent, FACS + sequencing; frameworks hold sequencing errors
Outline: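 A nanobody's polyreactivity label depends on the gate it was sorted from. Yeast display cells were stained with 10% biotinylated, detergent-solubilized Sf9 membrane reagent for 1 hour at 4 °C, enriched on streptavidin microbeads and sorted by FACS. The low and high (top ~1%) gates were set on anti-HA fluorescence for expression and streptavidin fluorescence for reagent binding.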

Row | Sequence | polyreactivity (PSR sort gate)
1 | QVQLVESGGGLVKAGGSLRLSCAASGSTFWYNAMGCYRQAPRKERELVAAITRGASTNYADSVKGRFTISRDNAKNTVYLQMNCLKPEDTAVYYCAGGPARWKGYYWGQGTQVTVSS | high polyreactivity
2 | QVQLVESGGGLVQAGGSLRLSCAASGFTFLVNTMGWYRQAPGKERELVAATITSTGASTYYADSVKGRFTISRDNAKNTVYLQMNSLKPEDTAVYYCAVDPGGGNYIYYYNEYDYWGQGTQVTVSS | low polyreactivity
3 | QVQLVESGGGLVQAGGSLRLSCAASGRIFYGYTMGWYRQAPGKERELVADISWRGGSTSYADSVKGRFTISRDNAKNTVYLQMNSLKPEDTAVYYCAKRYRPESLYPFYNPYDYWGQGTQVTVSS | low polyreactivity
4 | QVQLVESGGGLVQAGGSLRLSCAASGFIFSGNAMGWYRQAPGKERELVAAISSGGSTNYADSVKGRFTISRDNAKNTVYLQMNSLKPEDTAVYYCNADSPERIPVDLENDYWGQGTQVTVSS | low polyreactivity
5 | QFQLVESGGGLVQAGGSLRLICAASGFIFRTYAMGWYRQAPGKAREFVAAITFSAGSTYYADSVKGRFTISRDNAKNTVYLQMNSLLPEDSAVYDCNVLKSWYGYSVTGRYVYWGQGTQVTVSS | low polyreactivity
6 | QVQLVESGGGLVHAGGSLRLSCAASGSTLRGYVMGWYRQAPGKERELVAAITQRAGSTYYADSVKGRFTISRDNAKNPVYLQMNSLKAEDTAVYYCNVDRHYAVESGYWGQGTQVTVSS | high polyreactivity
7 | QLQLVESGGGLVQAGGSLRLSSAASGFTFSIYAMGCYRQAPGKERELVAAINFGGGGTYYADSVKGRFTSSRDIAKNTVYLQMNSLKAEVTAVYDCAADYCYDYYSTEYDYWGQGTQVTVSS | low polyreactivity
8 | QVQLVESGGGLVQAGGSLRLSCAASGFIFVLNVMGWYRQAPGKEMELVAAITWSGTSTYYADSVKGRFTISRDNAKNTVYLQMNSLKPEDTAVYYCNADWWSDGYDYWGQGSQVTVSS | low polyreactivity
9 | QVQLVESGGGLVQAGGSLRLSCAASGIIFYKYAMGWYRQAPGKERELVAAINWSGGSTYYADSVKGRFTISRDNAKNTVYLQMNSLKPEDTAVYYCAADRTDFEYYYWGQGTQVTVSS | low polyreactivity
10 | QVQLVESGGGLVQAGGSLRFSCAASGFIFRDNAMVWYRRAPGKERELVAAISYSGGSTYYADSVKGRFTISRDNAKNTVYLQMNSVKPEDTAVYYCAASYGPKRRGYWGQGTQVTVSS | high polyreactivity
11 | QVQLVESGGGLVQAGGSLRLSCAASGFIIADYTMGWYRQAPGKERELVAAITRSGDSTYYADSVKGRFTISRDNAKNTVYLQMNSLKPEDTAVYYCNAVNDWYYAYYGVTSFRSYDYWGQGTQVTVSS | low polyreactivity
12 | QVQLVESGGGLVQAGGSLRLSCAASGSTFPFYAMGWYRQAPGKERELVAAITSGGSTYADSVKGRFTISRDNAKNTVYLQMNSLKAEVTAVYYCAASWPRWWRFGYWGQGTQVSVSS | low polyreactivity
13 | QVQLVESGGGLVQAGGSLRLSCAATGYIGGNAMGWYRQAPWKERELVATLSRSGGSTYYADSVKGRFTISRDNAKNTVYLQMNSLKPEDSAVYYCAAVSYGNYHWGMYYWGQGTQVTVSS | low polyreactivity
14 | QVQLVESGGGLVQAGGSLRLSCAASGRILTFNTMGWYRQAPGKERELVAAIRSGGSTYYADSVKGRFTISRDNAKNTVFLQMNSLKPEDTAVYYCRGMGYWGQGTQVTVSS | high polyreactivity
15 | QVQLLESGGGLVQAGGSLRLSCAASGLIFWGYAMGWYRQAPGKERELVAAINATGGRTYYADSVKGRFTISRDNAKNTVYLQMNSLKPEDTAVYYCAAYSGFYDSYDYWGQGTQVTVSS | low polyreactivity
16 | QVQLVESGGGLVQAGGSLRLSCAASGSTFHYYAMGWYRQAPGKERELVAAISQSGSGTYYADSVKGRFTISRDNAKNTVYLQMNSLKPEDTAVYYCAKESTKIYRVVEMDYWGQGTQVTVSS | low polyreactivity
17 | QVQLVESGGGLVQAGGRLRLSCAASGSTLGRYAMGWYRQAPGKERELVASITWSDDSTYYADYVKGRFTISRDNAKNTVYLQMNSLKPEDTAVYYCAAAGNLYTYRFYYWGQGTQVTVSS | low polyreactivity
18 | QVQLVESGGGLVQAGGSLRLSCAASGFTFLSYTMGWYRQAPGKERELVASITASGTRTYYADSVKGRFTISRDNAKNTVYLQMNRLKPEDTSVYYCAARRSGSGSHDYGYWGQGTQVTVSS | low polyreactivity
19 | QVQLVDSGGGLVQAGGSLRLICAASGITFYYYAMGWYRQAPGKERELVAAISSRGGSTYYADSVKGRFTISRDNAKNTVYLQMNSLKPEDTAVYYWAALYGVSEEDDYWGQGTQVTVSS | high polyreactivity
20 | QVQLVESGGGLVQAGGRLRLSCAASGSTFAWSAMGWYRQAPGKERELVAGIWNTGRTYYADSVKGRFTISRDNAKNTVYLQMNSLKPEDTAVYYCAALYNSPNVTYYYWGQGTQVTVSS | high polyreactivity
21 | QVQLVESGGGLVQAGGSLSLSCAASGRIIDWNTMGLYRQAPGKERDLDATISWDGGTKYYADSVKGRFTISRDTAKNTVFLQMNSLKPEDTAVYYCNKSPLNFFRFRATYDYWGQGTQVTVSS | low polyreactivity
22 | QDQLVESGGGLVQAGGSLRLSCAASGGIFPAYAMGWYSQAPGKERELVASISANGGRTYYADSVKGRFTISRDNAKNTVYLQMNSLKPEDTAVYYCNKRWLHWSGYDYWGQGTQVTVSS | high polyreactivity

Row | Sequence | polyreactivity (PSR sort gate)
23 | QVQLVDSGAGLVQAGGSLRISCAATGSTFPRYGMGWYRQAPGKERQMVAAISSGGRTNYADSVKGRFTISRDNAKNTVYLQMNSLKPEDTAVYYCAARIPYYFSYYFYSGMDYWGQGTQVTVSS | high polyreactivity
24 | QVQLVESRGGLVQAGGSLRLRCAASGFIFGYNVMGWYRQAPGKERELVASISTGGRTYYADSVKGRFTISRDNAKNTVYLQMNSLKPEDTAVYYCAARYRSYSYLYYSWGQGTQVTVSS | high polyreactivity
25 | QVQLVESGGGLVQAGGSLRLSCAASGRTFDYYVMGWYRQAPGKERELVAAITSGGSTYYADSVKGRFTISRDNAKNTVYLQMNSMKPEDTAVYYCNNVRGAFYSHLFDYWGQGTQVTVSS | high polyreactivity
26 | QVQLVESGGGLVQAGGSLRLSCAASGITFSYNAMGWDRQAPGKERELVAAISSNSDSTYYADSVKGRFTISRDNAKNTVYLQMNSLKPEDTAVYYCAADTPDAPDYSGFYYWGQGTQVTVSS | low polyreactivity
27 | QVHLVESGGGLVQAGGSLRLSCAASGSTFDDYVMGWYRQAPGKESELVAAITRSGTSTYYADSVKGRFTISRDNAKNTVYLQMNSLKPEETAVYYCAAGPFGLKPYTLGYNYWGQGTQVTVSS | high polyreactivity
28 | QVQLVESGGGLLLAGGSLRLSCAASGNIFRANTRGWYRQAPGKERELVASIRRSGGSTYYADSVKGRFTISRDNAKNTVYLQMNSLKPEDTAVYYCAAKSRPPYTDNYYWGQGTQVTVSS | high polyreactivity
29 | QVQLVESGGGLVQAGGSLRLSCAASGRIFVHNAMGWYRQAPRKERELVAAISWSGGSTYYADSVKGRFTISRDNAKNTVYLQMNSLKPEDTAVYYCNALDPLYFRYDYWGQGTQVTVSS | low polyreactivity
30 | QVQLVESGGGLVQAGGSLRLSCAASGRIFRGYAMGWYRQAPGKERELVATISAIGGSTYADSVKGRFTISRDNAKNTVYLQMNSLKPEDTAVYYCNVRKVYRYQYRFEYWGQGTQVTVSS | high polyreactivity
31 | QVQLVESGGGLGQAGGSLRLSCAASGRIFIDYAMGWYRQAPGKERELVAAITYSTGGTYYGDSVKGRFTISRDNAKNTVYLQMNSLKPEDTAVYYCNATYVWPGRRRDGYWGQGTQVTVSS | low polyreactivity
32 | QVQLVESGGGLVQAGGSLRLSCAASGSTFGRYAMGWSRQAPGKEWELVAAISGRGGSTYYADSVKGRFTISRDNAKNTVYLQMNSLKPEDTAVYYCAVRYYSARYWYGYDYWGQGTQVTVSS | high polyreactivity
33 | QVQLVESGGGLVQAGGSLRLSCAASGSIFTHYAMGWYRQAPGKERELVAAISRRGGSTYYADSVKGRFTISRDNAKNTVYLQMNSLKPEDTAVYYCAVRLYLEMDYWGQGTQVTVSS | high polyreactivity
34 | QVQLVESGGGLVQAGGSLRLSCAASGNIFYINAMGWYRQAPGKERELVAAISSGGRTNYADSVKGRFTISRDNAKNTVYLQMNSLNPEDTEVYYCNADGWYAWRYYAPGGYDYWGQGTQVTVSS | low polyreactivity
35 | EEELVESGGGLVQAGGSLRLSCAATGSIFVVNAMRWYRQAPGKERELVAAIARGGITNYADSVKGRFTISRDNAKNTVYLQMNSLKPEDTAVYYCNARGSRWVKPDRDYWGQGTQVTVSS | low polyreactivity
36 | QVQLVESGGGIVQEGGSLSLSCAASGRIFFDYAMGWYRQAPGKERELVADIDWSGGITYYADSVKGRYTISRDNAKNTVYLQMNSLNPEDTAVYYCAVEFDELYPTTAYGEFEYWGQVTQVTVSS | high polyreactivity
37 | QVQLVESGGGLVQAGGSLRLSCAASGSTFPYYVMGWYRQAPGKERELVAAISGSGTRTYYADSVKGRFTISRDNAKNTVYLQMNSLKPEDTAVYYCAARKYPQGFDYWGQGTQVTVSS | low polyreactivity
38 | QVQLVESGGGLVQAGGSLRLSCAASGSTFSYYAMGWYIQAAGKERELVADITLNGGDTYYADSVKGRFTISRDNAKNTVYLQMNSLKPEDTAVYYCAKDSTADELTGFDYWGQGTQVTVSS | low polyreactivity
39 | QVQLVESGGGLVQAGGSLRLSWAASGSSFFRNAMGGYSQAPGKERELVASISRSGGSTYYADSVKGRFTISRDNAKNTVYLQMNSLKPEDTAVSYCAKKPNTQTSYWYYYWGQGTQVTVST | high polyreactivity
40 | QVHLVESGGGLVQAGGSIRLSCAASGLIFYPYAMGWYRKAHGKEREFVAAITWSGGSTRYADSVKGRFTISLDNAKNTVYLQMNSLKPEDTAVYYCAARYIWWYDYTYTGLDYWGQGTQVSVSS | high polyreactivity
41 | QVQLVESGGGLVQAGGSLRLSCAASGSIFWRYAMGWYRQAPGKERELVAAIDVSGATTYYADSVKGRFTISRDNAKNTVYLQMNSLKPEDTAVYYCATYATNSVAAYDYWGQGTQVTVSS | low polyreactivity
42 | QVQLVESGGGLVQAGGSLRLSCAASGRIFGGNAMGWYRQAPGKERELVAAITTRGGSTYADSVKGRFTISRDNAKNTVYLQMNSLKPEDTAVYYCNKRYVIRRRGYDYWGQGTQVTVSS | low polyreactivity
43 | QVQLVESGGGLVQAGGSLRLSCAASGRTYYHYTMGWYRQAPGKERDLVAAITSGGSTYYADSVKGRFTMSRDNAKITVYVQMNSLKPEDTAVYYCARVRPLYHYSRYDYWGQGTQVTVSS | high polyreactivity
